Consider three molecules from patent US20250313621A1 (NXERA PHARMA UK, published 2025).

Substitutions are numbered along the chain they refer to. Bounds are passed on as bounds.

For test [1], the target named is T1, Human PAR2 StaR incorporated into nanodiscs (construct not stated) (human, UniProt P55085 37-377, limits assumed).
T1 construct: also called nanodisc-embedded StaR
T1 sequence: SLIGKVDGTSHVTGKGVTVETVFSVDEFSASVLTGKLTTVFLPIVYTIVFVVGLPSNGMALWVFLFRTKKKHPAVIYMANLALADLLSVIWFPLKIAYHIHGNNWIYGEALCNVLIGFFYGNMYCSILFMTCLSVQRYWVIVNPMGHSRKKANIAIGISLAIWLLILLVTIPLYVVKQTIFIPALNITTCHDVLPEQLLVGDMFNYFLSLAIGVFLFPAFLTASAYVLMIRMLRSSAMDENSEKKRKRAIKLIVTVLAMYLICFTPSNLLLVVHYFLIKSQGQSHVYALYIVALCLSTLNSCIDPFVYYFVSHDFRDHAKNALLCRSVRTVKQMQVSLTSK
Description: SPR Biacore; human PAR2 StaR incorporated into nanodiscs. A general note: SPR reads the build-up and loss of mass on a sensor chip optically.

Test [2] deals with T2, PAR2-3: P157: 1-377, glycosylated, pBacMamHisStrepII, full length (human, UniProt P55085 26-377).
T2 construct: detergent-solubilised analyte in SPR, or on infected cells in flow cytometry; also called FL-N PAR2 StaR; FL-N StaR; not shown: C-terminal StrepII and deca-histidine tags
T2 sequence: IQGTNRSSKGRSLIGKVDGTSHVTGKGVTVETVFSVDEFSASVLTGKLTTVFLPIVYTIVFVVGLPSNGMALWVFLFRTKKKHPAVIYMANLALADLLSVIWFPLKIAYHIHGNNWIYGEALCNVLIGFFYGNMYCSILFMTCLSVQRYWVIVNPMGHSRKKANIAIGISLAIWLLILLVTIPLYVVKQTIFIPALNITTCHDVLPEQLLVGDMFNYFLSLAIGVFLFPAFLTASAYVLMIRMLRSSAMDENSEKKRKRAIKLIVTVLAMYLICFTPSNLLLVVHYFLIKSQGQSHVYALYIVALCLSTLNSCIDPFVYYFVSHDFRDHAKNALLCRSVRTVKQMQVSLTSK
Description: SPR (table head: Octet); IgG captured via Fc, FL-N PAR2 StaR as analyte; koff at the lower assay limit. The method, then: For all eleven IgG1f_AEASS, affinities to human PAR2 were determined by SPR. The IgGs were captured via their Fc-fragment and detergent (LMNG/CHS) solubilised FL-N PAR2 StaR was used as analyte in solution. 50 mM HEPES pH 7.5, 150 mM NaCl, 0.02% LMNG was used as assay buffer. To minimize artefacts introduced by non-specific interaction of FL-N PAR2 StaR with the sensors, the CM3 sensors were used as basis to immobilize a high density of anti-hu-Fc capture antibody (BR-1008-39, GE Healthcare). IgGs were captured with relatively high levels of approximately 500 RU to achieve a higher ratio of specific to non-specific binding (while still maintaining conditions suitable for kinetic characterization). Affinities ranged from 6.5 nM to 130 pM. The koff values of the best candidates were at the lower assay limit. A minimum koff of 2.00E-05 s⁻¹ was reported (corresponding to 3% dissociation in 1500 s).
In general terms: In BLI a coated tip is dipped into the sample, and binding shifts an interference pattern.

The target of test [3] is T3, Wildtype human PAR2 expressed on cells (human, UniProt P55085 37-397).
T3 construct: also called huPAR2; WT FL-huPAR2
T3 sequence: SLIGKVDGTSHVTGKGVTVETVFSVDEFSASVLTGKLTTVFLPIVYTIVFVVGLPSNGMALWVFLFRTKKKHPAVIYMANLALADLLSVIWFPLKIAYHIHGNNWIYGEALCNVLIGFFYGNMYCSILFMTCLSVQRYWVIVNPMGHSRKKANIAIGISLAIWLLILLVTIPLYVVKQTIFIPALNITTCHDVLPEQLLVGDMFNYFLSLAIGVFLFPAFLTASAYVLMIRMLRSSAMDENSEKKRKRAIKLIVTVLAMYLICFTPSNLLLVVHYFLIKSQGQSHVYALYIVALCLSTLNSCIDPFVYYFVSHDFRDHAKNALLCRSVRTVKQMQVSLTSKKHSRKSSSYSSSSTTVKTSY
Description: KinExA, apparent KD; IgG titrated with BacMam infected HEK-293F cells expressing wild-type full-length human PAR2. The method, then: (§1) For the determination of apparent KD using “native” PAR2 (i.e. PAR2 expressed at the cell surface) KinExA methodology was applied to evaluate a subset of lead clones, namely Y022870 and Y02283. […] The cells were titrated in incubation buffer (D-PBS from Gibco, 0.5% (w/v) BSA, 0.02% (v/v) Sodium azide). The experiment consisted of two titrations with a low and a high fixed IgG concentration. In both titration experiments (stoichiometry- and affinity-controlled conditions), the maximum amount of cells had to contain a high enough effective ligand concentration to completely saturate the IgG. The mixtures of IgG and cells were incubated at room temperature overnight under very gentle agitation to allow for equilibrium formation. Subsequently, the formed cell-antibody complex was removed by centrifugation. The free IgG amounts of the supernatants were determined with goat anti-human F(ab′)₂ fragment specific antibody (Jackson ImmunoResearch, #109-005-097) coated on PMMA (Polymethylmethacrylat) beads and fluorescence detection with anti-human F(ab′)₂ fragment specific Alexa Fluor 647 antibody (Jackson ImmunoResearch, #109-605-097). […] The recorded titration curves were analyzed with KinExA Pro software 4.1.11 using the n-curve analyse tool by applying the “Equilibrium, whole cell” model. […] Values are in line with SPR determined using PAR2 nanodiscs (210 and 140 pM, respectively).

Test [4] addresses T3, Wildtype human PAR2 expressed on cells. Description: KinExA, whole cell equilibrium, HEK-293F cells expressing WT full-length human PAR2 titrated against two fixed IgG concentrations, apparent KD; sheet also prints Expression Level: 7.951e+006 receptors/cell, Error: 2.06 %. The method, then: as §1
In general terms: Kinetic exclusion samples the free partner from a solution-phase mixture.

The target of test [5] is T4, Cynomolgus PAR2 on BacMam-infected HEK293 cells (cynomolgus).
T4 construct: whole, on cells; also called cyno PAR-2; Cyno PAR2
Description: flow cytometry on HEK293F-cynoPAR2 (3.0E+06 cells/mL), S/BG.

The target in test [6] is T3, Wildtype human PAR2 expressed on cells. Description: KinExA, whole cell equilibrium, HEK-293F cells expressing WT full-length human PAR2 titrated against two fixed IgG concentrations, apparent KD; sheet also prints Expression Level: 2.518e+006 receptors/cell, Error: 2.56 %. The method, then: as §1

B1: Y022870 (antibody, human IgG1, lambda, V domains shown)
VH: EVQLLESGGGLVQPGGSLRLSCAASGFSFSRYAITWVRQAPGKGLEWVSTISALGLETYYAESVRGRFTISRDNSKNTLYLQMNSLRAEDTAVYYCARGFHYTHSGKRYYYPFDIWGQGTLVTVSS
VL: QSALTQPASVSGSPGQSITISCTGTSSDVGSYNLVSWYQQHPGKAPKLMIYEGSKRPSGVSNRFSGSKSGNTASLTISGLQAEDEADYYCSQYATFIAFAVFGGGTKLTVLG
notes: also called Y22870
In general, koff refers to the first-order rate constant of dissociation. Lower therefore signals a long-lived complex. In general, kon refers to a measure of how fast the partners come together. A higher kon goes with fast association. Turning to B1, the Kd was 2.7 nM in test [1], at most 0.21 nM in test [2], about 0.37 nM in test [3] and 0.373 nM in test [4]. Also, the koff in test [1] was 0.00025 s⁻¹. The same molecule returned an on-rate constant (kon) in test [1] of 93000 M⁻¹ s⁻¹.

B2: Y022877 (antibody, human IgG1, lambda, V domains shown)
VH: B1 VH with S28T, I34M, A53G, L56Q, T58A, E62G, R65K
VL: B1 VL
notes: also called Y22877
As usually defined, the EC50 (read off the curve) is the concentration giving half of the maximal effect. Read a high EC50 (read off the curve) as a need for much substance. With B2, in test [1], the Kd is 2.8 nM, the dissociation rate constant (koff) stood at 0.00021 s⁻¹ and the kon stood at 73000 M⁻¹ s⁻¹. Besides, in test [5], the “EC50 (read off the curve)” value was about 3 nM. In test [2], this molecule had a Kd of 0.29 nM.

B3: Y022883 (antibody, human IgG1, lambda, V domains shown)
VH: B1 VH with S30T, T35S, T50V, A53G, L54H, L56S, T58A, Y59N, R65K
VL: B1 VL
notes: also called Y22883; Y02283
In the case of B3, the “EC50 (read off the curve)” value in test [5] was about 2 nM. The Kd in test [2] was 0.14 nM; in test [3] it was about 0.26 nM; in test [6] it was 0.259 nM.
